The data set deals with the molecule itself. The data set is described as follows: crystal structure; ΔNC-Fab complex 10-20 mg/mL, 25%-35% PEG400, 100 mM Ca-acetate or 300 mM KCl, pH 8.5-9.5, 22°C; dataset refined to 2.5 Å.

The values below come from publication PMC3519907 (PLoS Biology, 2012).

B1: ΔNC CLC-ec1 (domain or fragment, Escherichia coli, UniProt P37019 1-460, looked up)
chain: MRRRQLIRQLLERDKTPLAILFMAAVVGTLVGLAAVAFDKGVAWLQNQRMGALVHTADNYPLLLTVAFLCSAVLAMFGYFLVRKYAPEAGGSGIPEIEGALEDQRPVRWWRVLPVKFFGGLGTLGGGMVLGREGPTVQIGGNIGRMVLDIFRLKGDEARHTLLATGAAAGLAAAFNAPLAGILFIIEEMRPQFRYTLISIKAVFIGVIMSTIMYRIFNHEVALIDVGKLSDAPLNTLWLYLILGIIFGIFGPIFNKWVLGMQDLLHRVHGGNITKWVLMGGAIGGLCGLLGFVAPATSGGGFNLIPIATAGNFSMGMLVFIFVARVITTLLCFSSGAPGGIFAPMLALGTVLGTAFGMVAVELFPQYHLEAGTFAIAGMGALLAASIRAPLTGIILVLEMTDNYQLILPMIITGLGATLLAQFTGGKPLYSAILARTLAKQEAEQ
notes: CLC-ec1, Cl-/H+ antiporter of Escherichia coli; Homodimer in the crystal (chains A and B); also called trimmed construct; source: E. coli, purified in decylmaltoside (His-tag removed, Superdex 200 gel filtration)
Turning to B1, the binding result is “binds”.
